Measurements published in US20230357386A1 (EISAI R AND D MANAGEMENT, published 2023).
Where a chain is given by its changes, count along the chain named.

B1: antibody A (human anti-EphA4 monoclonal antibody) (antibody, V domains shown)
VH: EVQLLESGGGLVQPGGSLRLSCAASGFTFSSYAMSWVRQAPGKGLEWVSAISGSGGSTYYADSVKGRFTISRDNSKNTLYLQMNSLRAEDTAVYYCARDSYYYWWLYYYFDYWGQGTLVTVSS
VL: SSELTQDPAVSVALGQTVRITCQGDSLRSYYASWYQQKPGQAPVLVIYGKNNRPSGIPDRFSGSSSGNTASLTITGAQAEDEADYYCQSSYSSSYSYVFGGGTKLTVLG
notes: Human IgG2 / lambda, from a phage library scFv converted to IgG; made in Expi293F or CHOK1SV cells
B2: antibody B (human anti-EphA4 monoclonal antibody) (antibody, human IgG1, lambda, V domains shown)
VH: EVQLLESGGGLVQPGGSLRLSCAASGFTFSSFAMSWVRQAPGKGLEWVSAISGSGGSTYYADSVKGRFTISRDNSKNTLYLQMNSLRAEDTAVYYCARDDYYPYWWYYYYFDYWGQGTLVTVSS
VL: B1 VL with Y31F
notes: Human IgG1/2 (IgG1 CH1 and hinge, IgG2 CH2 and CH3) / lambda; made in Expi293F or CHOK1SV cells

Tests used:
[1] = molecular target: T1, human EphA4 extracellular domain-SEAP-His protein (human); assay: SPR (Biacore T200): human EphA4 extracellular domain-SEAP-His10 captured by anti-His antibody on CM5, antibody as analyte 1.6-100 nM, 1:1 fit
T1 construct: also called Human EphA4 extracellular domain-SEAP-His10
Method: (§1) The binding affinity of the antibody A and the antibody B to human EphA4 was determined by surface plasmon resonance (SPR) using Biacore T200 (Cytiva). First, an anti-His antibody (Cytiva, 28-9950-56) was immobilized on sensor chip CM5. The immobilization was performed by the amine coupling method using N-hydroxysuccinimide (NHS) and N-ethyl-N′-(3-dimethylaminopropyl)carbodiimide hydrochloride (EDC). Ethanolamine was used in blocking (the sensor chip and the reagents for immobilizations were all manufactured by Cytiva). The antibody was diluted with a buffer solution for immobilization (10 mM sodium acetate, pH 4.5) into 3 µg/mL and immobilized on the sensor chip according to the protocol attached to Biacore T200. Human EphA4 extracellular domain-SEAP-His10 was diluted with a running buffer solution HBS-EP+ (Cytiva, BR-1001-69), injected onto a flow cell for 120 seconds, and captured (amount of the antibody captured: approximately 6 RU). Subsequently, the antibody A or the antibody B serially diluted in the range of 100, 50, 25, 12.5, 6.3, 3.2, 1.6, and 0 nM using HBS-EP+ was added to the sensor chip for 120 seconds. Binding reaction curves were sequentially observed at the time of the addition (association phase, 120 sec) and after the completion of the addition (dissociation phase, 600 sec). After the completion of each observation, the sensor chip was regenerated by the addition of 3 M MgCl₂ (60 sec). The obtained binding reaction curves were subjected to fitting analysis using 1:1 binding models and software BIA evaluation attached to the system to calculate the binding affinity (KD = kd / ka) to human EphA4. The experiment mentioned above was carried out three times, and an average value of each parameter was calculated.

[2] = molecular target: T2, rat EphA4 extracellular domain-SEAP-His protein (rat, UniProt Q03137 20-547 (mouse entry)); assay: ELISA: rat EphA4 extracellular domain-SEAP-His captured by anti-6-His antibody, detection with HRP anti-human IgG Fc
T2 construct: not shown: SEAP and histidine tag
Method: (§2) The antibody A and the antibody B were evaluated for their binding activity against each EphA4 according to the following steps. Each well of a 96-well plate (Nunc) was coated with a rabbit anti-6-His antibody (Bethyl Laboratories, Inc.). After incubation at room temperature for 1 hour, each well was blocked with 1% BlockAce (KAC Co., Ltd.) overnight at 4° C. After washing with 0.02% Tween 20/PBS three times, each of the mouse, rat, monkey and human EphA4 extracellular domain-SEAP-His proteins (final concentration: 1 nM) was seeded in each well and incubated at room temperature for 1 hour. After washing three times, the antibody A or the antibody B (0, 0.00013, 0.00064, 0.0032, 0.016, 0.08, 0.4, 2, and 10 µg/mL) was added to each well and incubated at room temperature for 1 hour. After washing three times, a horseradish peroxidase-labeled rabbit anti-human IgG Fcy fragment antibody (Jackson ImmunoResearch Laboratories, Inc.) was added thereto and incubated at room temperature for 1 hour. After washing three times, a TMBZ (3,3′,5,5′-tetramethylbenzidine, Kirkegaard & Perry Laboratories, Inc.) solution was added to each well. An equal amount of a reaction stopping solution (2 N H₂SO₄, FUJIFILM Wako Pure Chemical Corp.) was added to each well. The absorbance at 450 nm was read using a microplate reader (Thermo Fisher Scientific Inc.).

[3] = molecular target: T1, human EphA4 extracellular …; assay: competition ELISA, captured human EphA4 ECD-SEAP-His; competitor biotinylated human Ephrin B3-Fc (2.3 nM)
Method: (§3) The antibody A and the antibody B were evaluated for their inhibitory activity against the binding between human EphA4 and its human ligand according to the following steps. Each well of a 96-well plate (Nunc) was coated with an anti-alkaline phosphatase antibody (Thermo Fisher Scientific Inc.). After incubation overnight at 4° C., each well was blocked with 1% BlockAce (KAC Co., Ltd.) overnight at 4° C. After washing with 0.02% Tween 20/PBS three times, the human EphA4 extracellular domain-SEAP-His protein (final concentration: 10 nM) was seeded in each well and incubated at room temperature for 1 hour. After washing three times, ligands and serially diluted antibody A or antibody B (0, 0.003, 0.01, 0.03, 0.1, 0.3, 1, 3, 10, 30, 100, 300, 1000, and 3000 nM) were added to each well. The ligands used were biotinylated human Ephrin A5-Fc chimera (R&D Systems, Inc., final concentration: 0.7 nM) and biotinylated human Ephrin B3-Fc chimera (R&D Systems, Inc., final concentration: 2.3 nM). After incubation at room temperature for 1 hour and subsequent washing three times, a horseradish peroxidase-labeled streptavidin (GE Healthcare Japan Corp.) was added thereto and incubated at room temperature for 1 hour. […] The absorbance at 450 nm was read using a microplate reader (Thermo Fisher Scientific Inc.).

[4] = molecular target: T3, monkey EphA4 extracellular domain-SEAP-His protein (monkey); assay: ELISA: monkey EphA4 extracellular domain-SEAP-His captured by anti-6-His antibody, detection with HRP anti-human IgG Fc
T3 construct: not shown: SEAP and histidine tag
Method: as §2

[5] = molecular target: human EphA4 fibronectin type III domain 2-MBP-His protein (human, UniProt P54764 436-547; P0AEX9 29-392 = MBP); assay: ELISA, domain-MBP-His captured by anti-6-His antibody
Method: (§4) The antibody A, the antibody B, and human IgG (Sigma-Aldrich Co. LLC) were evaluated for their binding activity against each EphA4 according to the following steps. Each well of a 96-well plate (Nunc) was coated with a rabbit anti-6-His antibody (Bethyl Laboratories, Inc.). After incubation at room temperature for 1 hour, each well was blocked with 1% BlockAce (KAC Co., Ltd.) overnight at 4° C. After washing with 0.02% Tween 20/PBS three times, each of the human EphA4 extracellular domain-, human EphA4 ligand-binding domain-, human EphA4 fibronectin type III domain 1-, and human EphA4 fibronectin type III domain 2-MBP-His proteins or the MBP-His protein (final concentration: 1 nM) was seeded in each well and incubated at room temperature for 1 hour. After washing three times, the antibody A, the antibody B, or human IgG (10 nM) was added to each well and incubated at room temperature for 1 hour. After washing three times, a horseradish peroxidase-labeled rabbit anti-human IgG Fcy fragment antibody (Jackson ImmunoResearch Laboratories, Inc.) was added thereto and incubated at room temperature for 1 hour. After washing three times, a TMBZ (3,3′,5,5′-tetramethylbenzidine, Kirkegaard & Perry Laboratories, Inc.) solution was added to each well. An equal amount of a reaction stopping solution (2 N H₂SO₄, FUJIFILM Wako Pure Chemical Corp.) was added to each well. The absorbance at 450 nm and 650 nm was read using a microplate reader (Thermo Fisher Scientific Inc.).

[6] = molecular target: human EphA4 fibronectin type III domain 1-MBP-His protein (human, UniProt P54764 326-439; P0AEX9 29-392 = MBP); assay: as above
Method: as §4

[7] = molecular target: T1, human EphA4 extracellular …; assay: SPR (Biacore T200), EphA4 ECD-SEAP-His10 captured by anti-His antibody, antibody as analyte, 1:1 model, mean of three runs
Method: as §1, with “Binding reaction curves were sequentially observed at the time of the addition (association phase, 120 sec) and after the completion of the addition (dissociation phase, 600 sec). After the completion of each observation, the sensor chip was regenerated by the addition of 3 M MgCl₂ (60 sec). The obtained binding reaction curves were subjected to fitting analysis using 1:1 binding models and software BIA evaluation attached to the system to calculate the binding affinity (KD = kd / ka) to human EphA4.” left out

[8] = molecular target: T4, human EphA4 extracellular domain-MBP-His protein (human); assay: ELISA, domain-MBP-His captured by anti-6-His antibody, antibody 10 nM
T4 construct: also called human EphA4 extracellular domain (ECD); ECD
Method: as §4, with “An equal amount of a reaction stopping solution (2 N H₂SO₄, FUJIFILM Wako Pure Chemical Corp.) was added to each well.” left out

[9] = molecular target: T5, mouse EphA4 extracellular domain-SEAP-His protein (mouse, UniProt Q03137 20-547); assay: ELISA: mouse EphA4 extracellular domain-SEAP-His captured by anti-6-His antibody, detection with HRP anti-human IgG Fc
T5 construct: not shown: SEAP and histidine tag
Method: as §2

[10] = molecular target: T1, human EphA4 extracellular …; assay: ELISA: human EphA4 extracellular domain-SEAP-His captured by anti-6-His antibody, detection with HRP anti-human IgG Fc
Method: as §2

[11] = molecular target: T1, human EphA4 extracellular …; assay: competition ELISA, captured human EphA4 ECD-SEAP-His; competitor biotinylated human Ephrin A5-Fc (0.7 nM)
Method: as §3

T1 sequence (chain, as listed by the source limits assumed): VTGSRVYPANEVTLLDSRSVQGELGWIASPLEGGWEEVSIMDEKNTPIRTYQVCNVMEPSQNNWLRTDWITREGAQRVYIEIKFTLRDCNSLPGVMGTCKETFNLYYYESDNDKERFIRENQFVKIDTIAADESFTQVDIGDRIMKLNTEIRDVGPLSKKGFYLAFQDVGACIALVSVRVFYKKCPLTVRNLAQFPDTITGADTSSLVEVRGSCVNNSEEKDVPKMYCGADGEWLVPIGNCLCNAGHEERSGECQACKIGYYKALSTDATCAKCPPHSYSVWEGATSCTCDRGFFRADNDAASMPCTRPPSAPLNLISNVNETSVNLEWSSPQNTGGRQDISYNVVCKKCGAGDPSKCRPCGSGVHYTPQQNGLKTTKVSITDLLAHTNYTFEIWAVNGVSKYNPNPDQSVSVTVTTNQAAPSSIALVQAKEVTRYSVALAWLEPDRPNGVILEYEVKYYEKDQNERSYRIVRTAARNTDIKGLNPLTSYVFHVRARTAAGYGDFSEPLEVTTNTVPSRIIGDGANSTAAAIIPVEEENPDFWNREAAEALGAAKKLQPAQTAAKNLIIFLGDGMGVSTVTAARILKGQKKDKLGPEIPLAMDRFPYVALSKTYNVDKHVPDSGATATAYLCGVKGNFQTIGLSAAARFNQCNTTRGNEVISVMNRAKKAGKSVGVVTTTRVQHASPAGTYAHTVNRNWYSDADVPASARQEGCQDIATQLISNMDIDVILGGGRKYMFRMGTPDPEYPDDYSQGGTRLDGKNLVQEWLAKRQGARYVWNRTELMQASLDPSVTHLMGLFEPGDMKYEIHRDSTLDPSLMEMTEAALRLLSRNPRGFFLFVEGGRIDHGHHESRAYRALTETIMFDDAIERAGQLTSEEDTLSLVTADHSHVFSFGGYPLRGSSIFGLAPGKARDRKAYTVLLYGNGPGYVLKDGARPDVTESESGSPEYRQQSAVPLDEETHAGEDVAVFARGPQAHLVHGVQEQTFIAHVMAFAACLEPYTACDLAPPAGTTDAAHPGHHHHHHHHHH
T3 sequence (chain, as listed by the source): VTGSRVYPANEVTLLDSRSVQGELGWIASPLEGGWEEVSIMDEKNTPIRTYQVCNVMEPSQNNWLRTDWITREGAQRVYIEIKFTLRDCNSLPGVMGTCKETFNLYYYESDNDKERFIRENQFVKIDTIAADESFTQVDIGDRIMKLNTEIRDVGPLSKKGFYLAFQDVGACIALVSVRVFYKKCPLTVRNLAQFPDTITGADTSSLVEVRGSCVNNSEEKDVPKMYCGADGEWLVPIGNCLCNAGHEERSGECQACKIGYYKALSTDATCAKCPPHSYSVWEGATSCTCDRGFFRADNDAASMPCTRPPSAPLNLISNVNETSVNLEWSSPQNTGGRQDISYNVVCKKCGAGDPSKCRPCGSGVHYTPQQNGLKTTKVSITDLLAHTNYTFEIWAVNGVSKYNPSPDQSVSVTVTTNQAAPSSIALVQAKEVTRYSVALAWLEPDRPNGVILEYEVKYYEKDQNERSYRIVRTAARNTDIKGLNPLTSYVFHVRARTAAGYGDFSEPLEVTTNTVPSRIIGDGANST

Row | Binder | koff [1] [s⁻¹] | kon [1] [M⁻¹ s⁻¹] | EC50 (read off the curve) [2] [nM] | IC50 [3] [nM] | EC50 (read off the curve) [4] [nM] | binding result [5] | binding result [6] | Kd [7] [nM] | binding result [8] | EC50 (read off the curve) [9] [nM] | EC50 (read off the curve) [10] [nM] | IC50 [11] [nM]
1 | B1 | 0.000251 | 537000 | ~0.02 | 3 | ~0.02 | no binding (tested: 10 nM) | no binding (tested: 10 nM) | 0.467 | binds | ~0.02 | ~0.02 | 3.9
2 | B2 | 8.01e-05 | 512000 | ~0.04 | 4.1 | ~0.04 | no binding (tested: 10 nM) | no binding (tested: 10 nM) | 0.156 | binds | ~0.04 | ~0.04 | 4.8
